Experimental data taken from paper PMC4357505.

Key:
[1] = molecular target: β-arrestin1 (UniProt P49407); experiment: GST pull-down from cell lysate; details: reference: YFP-GCN2 wild type; sites T899
[2] = molecular target: β-arrestin2 (UniProt P32121); experiment: GST pull-down from cell lysate; details: reference: YFP-GCN2 wild type; sites T899

binding against the reference [1]: stronger
binding against the reference [2]: stronger
Substance: GCN2 1-1649 (from UniProt Q9P2K8) YFP-GCN2 T899A
